In general, Kd refers to the free concentration of one partner at which half of the binding sites on the other are occupied at equilibrium, for simple one-to-one binding. Usually IC50 stands for the midpoint of a concentration-inhibition curve.

Assay [1] concerns the target T1, human CC chemokine receptor 4 (CCR4) (human, UniProt P51679 1-360).
T1 construct: whole, on cells; Always presented on cells; also called CD194; human CCR4
T1 sequence (looked up): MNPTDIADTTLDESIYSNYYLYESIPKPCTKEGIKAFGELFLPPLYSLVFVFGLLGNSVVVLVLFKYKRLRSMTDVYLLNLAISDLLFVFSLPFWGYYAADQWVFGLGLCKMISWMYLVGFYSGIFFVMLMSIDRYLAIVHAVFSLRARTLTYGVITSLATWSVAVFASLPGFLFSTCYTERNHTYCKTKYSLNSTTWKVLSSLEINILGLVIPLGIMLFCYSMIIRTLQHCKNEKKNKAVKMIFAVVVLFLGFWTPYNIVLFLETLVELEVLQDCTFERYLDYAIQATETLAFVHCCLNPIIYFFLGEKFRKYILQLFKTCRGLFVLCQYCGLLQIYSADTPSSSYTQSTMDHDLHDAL
The assay is described as follows: calculated from the IC50; DT-40-CCR4+ cells, competitor 0.7 nM biotinylated IgG 9E. As for the experimental part: (§1) DT40 and CCRF-CEM cells were cultivated as described in Example 2. The cells were harvested from culture flasks, washed 2 times with PBS (400×g, 5 min, 4° C.) and resuspended in PBS containing 0.2% BSA and 0.09% NaN3. 1×10^5 cells per well were aliquoted into V-shaped 96-well plates (Griner Bio-One, Frikenhausen, Germany). Cells were centrifuged (400×g, 5 min, 4° C.) and resuspended in 50 μl IgG 9E10J or KM3060var (dilution series starting at 5 μg/ml) mixed with biotinylated competitor antibody 9E (0.1 or 0.5 μg/ml). The cells were incubated for 2 hours at 4° C., mixing with a pipette every 45 min. The cells were washed three times with 150 μl PBS with 0.2% BSA and 0.09% NaN3 and stained with 3 μg/ml streptavidin PE (BD Biosciences) for 45 minutes at 4° C. Cells were washed, resuspended in 200 μl PBS with 0.2% BSA and 0.09% NaN3, and transferred to a U-shaped 96 well Costar (Corning, Schiphol-Rijik, The Netherlands) plate for flow cytometry using an FACS Canto II flow cytometer (BD Biosciences, Heidelberg, Germany).

For assay [2], the target named is T1, human CC chemokine receptor 4 (CCR4). The assay is described as follows: flow cytometry, saturation titration of IgG on CCRF-CEM cells; one site-specific binding fit. In general terms: A flow cytometer gives signals particle by particle.
Assay [3] shares this target. The experiment in a line: flow cytometry competition; antibody titrated, competitor biotinylated TARC; cell line not given. As for the experimental part: The cells were harvested from culture flasks, washed 2 times with PBS (400×g, 5 min, 4° C.) and resuspended in PBS containing 0.2% BSA and 0.09% NaN3. 1×10^5 cells per well were aliquoted into V-shaped 96-well plates (Greiner Bio-One, Frikenhausen, Germany). Cells were centrifuged (400×g, 5 min, 4° C.) and resuspended in 50 μl IgG, single chain or unlabeled ligand (1:10 dilution series starting on 100/500/26, 4 μg/ml) mixed with a fixed concentration of biotinylated ligand (10 or 20 nM, see legend to FIG. 24). The cells were incubated for 2 hours at 4° C. and mixed with a pipette every 45 min. The cells were washed three times with 150 μl PBS with 0.2% BSA and 0.09% NaN3 and stained with 3 μg/ml streptavidin PE (BD Biosciences) for 45 minutes at 4° C. Cells were washed, resuspended in 200 μl PBS with 0.2% BSA and 0.09% NaN3, and transferred to a U-shaped 96 well Costar (Corning, Schiphol-Rijik, The Netherlands) plate for flow cytometry using an FACS Canto II flow cytometer (BD Biosciences, Heidelberg, Germany). […] Apparent binding affinities (KD) were calculated according to the following equation derived from previously described methods (Kipriyanov et al, 1997b; Schodin & Kranz, 1993): […]

Assay [4] has the same target. The assay is described as follows: flow cytometry competition on DT-40-CCR4+ cells; unlabelled IgG titrated, competitor 0.7 nM biotinylated IgG 9E. As for the experimental part: Further competition experiments were carried out to assess whether or not the test antibodies recognise the same or overlapping epitopes, and to determine their relative affinities for CCR4. Antibodies 9E10J, 9E and KM3060var were tested using labelled 9E as a competitor.
as §1

Residue numbers refer to the chain shown, from its start.

B1: 9E10J IgG (full length human IgG1, lambda) (antibody, V domains shown)
VH: QVQLVQSGAEVKKPGSSVKVSCKASGGTFSSYAISWVRQAPGQGLEWMGGIIPIFGTANYAQKFQGRVTMTRDTSTSTVYMELSSLRSEDTAVYYCARRGGSYFDYWGQGTLVTVSS
VL: SYVLTQPPSASGTPGQSVTISCSGSTSNIGSHYVFWYQQLPGTAPRLLIYRNHQRPSGVPDRLSGSKSGTSASLAISGLRSEDEADYYCAVWDDTLSGWVFGGGTKLTVLG
notes: also called IgG 9E10J; unmodified 9E10J
For the molecule B1, the Kd was 0.05 nM in assay [1] and 0.13 nM in assay [2]. The IC50 is 2.5 nM in assay [3] and 0.06 nM in assay [4].

B2: 9E IgG (full length human IgG1, lambda) (antibody, V domains shown)
VH: B1 VH with S31N, M70I, R72A, T74E, V79A
VL: B1 VL
notes: also called IgG 9E; IgG1 9E
Turning to B2, the Kd in assay [1] was 0.39 nM; in assay [2] it was 0.37 nM. The IC50 stood at 12.5 nM in assay [3] and 0.44 nM in assay [4].
